Columns and labels:
human CD3 on T cells [1] = target: T1, human CD3 on T cells (human, UniProt P07766 23-207); assay: flow cytometry on human T cells, donor 888668965
T1 construct: on T cells it stands in the TCR-CD3 complex; also called human T cells; T cells isolated from healthy human donors

human ENPP3 = target: T2, human ENPP3 (human, UniProt O14638 46-875, limits assumed); assay: affinity; method and construct not stated
T2 construct: neither the construct nor the method is stated; also called ectonucleotide pyrophosphatase/phosphodiesterase family member 3
T2 sequence (looked up): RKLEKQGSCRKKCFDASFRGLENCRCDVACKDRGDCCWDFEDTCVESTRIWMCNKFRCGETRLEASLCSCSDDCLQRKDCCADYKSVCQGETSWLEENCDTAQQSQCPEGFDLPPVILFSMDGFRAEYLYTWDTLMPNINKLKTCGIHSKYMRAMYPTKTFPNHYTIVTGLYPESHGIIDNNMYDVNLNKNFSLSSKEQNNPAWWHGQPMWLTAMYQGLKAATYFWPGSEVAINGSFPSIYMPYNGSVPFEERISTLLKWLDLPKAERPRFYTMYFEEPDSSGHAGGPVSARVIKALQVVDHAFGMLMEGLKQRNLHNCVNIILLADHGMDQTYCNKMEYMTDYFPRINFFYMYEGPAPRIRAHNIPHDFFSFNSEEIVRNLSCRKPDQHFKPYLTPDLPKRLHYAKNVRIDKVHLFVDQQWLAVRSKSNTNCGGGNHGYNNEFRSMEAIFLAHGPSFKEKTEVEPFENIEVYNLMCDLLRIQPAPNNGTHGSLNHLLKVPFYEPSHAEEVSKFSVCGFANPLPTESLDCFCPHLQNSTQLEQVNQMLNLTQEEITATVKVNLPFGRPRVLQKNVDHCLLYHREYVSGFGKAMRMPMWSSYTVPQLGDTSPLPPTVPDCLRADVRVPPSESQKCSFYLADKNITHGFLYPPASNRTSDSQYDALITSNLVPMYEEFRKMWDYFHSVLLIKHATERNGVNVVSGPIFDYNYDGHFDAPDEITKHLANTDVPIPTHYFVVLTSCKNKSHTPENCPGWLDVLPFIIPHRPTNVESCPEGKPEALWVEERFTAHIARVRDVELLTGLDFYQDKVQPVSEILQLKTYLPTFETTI

human CD3 = target: T3, human CD3 (human, UniProt P07766 23-126, limits assumed); assay: affinity; method and construct not stated
T3 construct: also called CD3 epsilon

human CD3 on T cells [2] = target: T1, human CD3 on T cells; assay: flow cytometry on human T cells, donor 110042496
human CD3 on T cells [3] = target: T1, human CD3 on T cells; assay: flow cytometry on human T cells, donor 110048457
human CD3 on T cells [4] = target: T1, human CD3 on T cells; assay: flow cytometry on human T cells, donor 110044049
ENPP2 on CHOK1 cells = ENPP2 on CHOK1 cells (UniProt Q13822 36-863); assay: flow cytometry on CHO cells overexpressing ENPP2
human ENPP3 on cells [5] = target: T4, human ENPP3 on cells (human, UniProt O14638 1-875); assay: flow cytometry on VMRCRCW cells
T4 construct: whole, on cells; also called ENPP3 on A704, VMRCRCW, HepG2, TUHR4TKB, TUHR10TKB; CHO-K1 ENPP3 OE
T4 sequence (looked up): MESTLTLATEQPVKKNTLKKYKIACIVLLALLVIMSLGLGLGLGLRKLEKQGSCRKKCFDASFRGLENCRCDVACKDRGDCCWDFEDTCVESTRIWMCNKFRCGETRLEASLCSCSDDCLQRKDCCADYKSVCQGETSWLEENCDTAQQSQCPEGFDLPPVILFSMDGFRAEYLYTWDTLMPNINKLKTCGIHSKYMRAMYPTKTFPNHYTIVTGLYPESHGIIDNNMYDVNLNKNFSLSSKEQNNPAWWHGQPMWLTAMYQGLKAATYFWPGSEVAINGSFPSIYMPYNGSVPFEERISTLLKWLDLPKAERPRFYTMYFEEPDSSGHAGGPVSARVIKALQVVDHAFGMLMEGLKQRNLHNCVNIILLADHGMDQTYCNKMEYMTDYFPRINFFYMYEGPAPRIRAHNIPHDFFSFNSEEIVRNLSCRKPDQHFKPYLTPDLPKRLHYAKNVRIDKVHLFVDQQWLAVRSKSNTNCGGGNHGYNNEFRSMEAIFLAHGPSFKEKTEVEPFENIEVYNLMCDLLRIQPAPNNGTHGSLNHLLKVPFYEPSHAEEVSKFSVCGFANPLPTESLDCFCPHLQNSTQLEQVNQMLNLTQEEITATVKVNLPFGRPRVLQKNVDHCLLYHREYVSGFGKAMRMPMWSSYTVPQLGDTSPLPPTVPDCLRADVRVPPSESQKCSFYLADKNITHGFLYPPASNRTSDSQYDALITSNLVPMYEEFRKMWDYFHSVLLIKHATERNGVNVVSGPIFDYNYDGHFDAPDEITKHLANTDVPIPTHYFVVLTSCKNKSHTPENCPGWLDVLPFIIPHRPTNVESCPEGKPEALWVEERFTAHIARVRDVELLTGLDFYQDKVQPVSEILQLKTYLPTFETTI

human ENPP3 on cells [6] = target: T4, human ENPP3 on cells; assay: flow cytometry on A704 cells
human ENPP3 on cells [7] = target: T4, human ENPP3 on cells; assay: cell-based or functional assay
human CD3 on T cells [8] = target: T1, human CD3 on T cells; assay: flow cytometry on human T cells, donor 110042593

T1 sequence (P07766 23-207 limits assumed): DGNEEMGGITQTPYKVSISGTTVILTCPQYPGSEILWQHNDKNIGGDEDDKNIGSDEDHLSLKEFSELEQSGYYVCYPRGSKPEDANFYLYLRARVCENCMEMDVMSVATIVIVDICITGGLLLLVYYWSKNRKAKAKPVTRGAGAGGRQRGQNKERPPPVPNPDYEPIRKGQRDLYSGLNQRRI
T3 sequence (P07766 23-126 limits assumed): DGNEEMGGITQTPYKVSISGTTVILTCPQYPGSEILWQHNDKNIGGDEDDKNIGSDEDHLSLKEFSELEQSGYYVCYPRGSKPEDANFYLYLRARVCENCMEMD

- EC50 (human CD3 on T cells [1]): 197 nM
- Kd (human ENPP3): 0.92 nM
- Kd (human CD3): 110 nM
- EC50 (human CD3 on T cells [2]): 147 nM
- EC50 (human CD3 on T cells [3]): 132 nM
- EC50 (human CD3 on T cells [4]): 188 nM
- binding result (ENPP2 on CHOK1 cells): no binding (tested: 100 nM)
- EC50 (human ENPP3 on cells [5]): 0.5 nM
- EC50 (human ENPP3 on cells [6]): 1.01 nM
- T-cell activation (Flow Cytometry) EC50; A704; E:T 3:1 (human ENPP3 on cells [7]): 0.011 nM
- T-cell activation (Flow Cytometry) EC50; HepG2; E:T 3:1 (human ENPP3 on cells [7]): 0.041 nM
- T-cell activation (Flow Cytometry) EC50; VMRCRCW; E:T 3:1 (human ENPP3 on cells [7]): 0.018 nM
- EC50 (human CD3 on T cells [8]): 146 nM
B1: NPP3B815 (bispecific antibody, human IgG1, kappa, L234A L235A)
heavy 1: EIVLTQSPATLSASPGERVTLSCSASSSVSYMNWYQQKPGCAPRRWIYDSSKLASGVPARFSGSGSGRDYTLTISSLEPEDFAVYYCQQWSRNPPTFGGGTKVEIKGGGSGGSGGCPPCGGSGGQVQLVQSGAEVKKPGSSVKVSCKASGYTFTRSTMHWVKQAPGQGLEWIGYINPSSAYTNYNQKFQGRVTLTADKSTSTAYMELSSLRSEDTAVYYCASPQVHYDYAGFPYWGCGTLVTVSSEPKSSDKTHTCPPCPAPEAAGGPSVFLFPPKPKDTLMISRTPEVTCVVVSVSHEDPEVKFNWYVDGVEVHNAKTKPREEQYNSTYRVVSVLTVLHQDWLNGKEYKCKVSNKALPAPIEKTISKAKGQPREPQVYTLPPSREEMTKNQVSLWCLVKGFYPSDIAVEWESNGQPENNYKTTPPVLDSDGSFFLYSKLTVDKSRWQQGNVFSCSVMHEALHNHYTQKSLSLSPGK
heavy 2: EVQLVESGGGRVKPGGSLRLSCAASGFTFSDYSMNWVRQAPGKGLEWVSSISSISSYVKYADSVKGRFTMSRDNAKNSLFLQMNSLRDEDMAVYYCARGHYFDYWGQGTLVTVSSASTKGPSVFPLAPSSKSTSGGTAALGCLVKDYFPEPVTVSWNSGALTSGVHTFPAVLQSSGLYSLSSVVTVPSSSLGTQTYICNVNHKPSNTKVDKKVEPKSCDKTHTCPPCPAPEAAGGPSVFLFPPKPKDTLMISRTPEVTCVVVSVSHEDPEVKFNWYVDGVEVHNAKTKPREEQYNSTYRVVSVLTVLHQDWLNGKEYKCKVSNKALPAPIEKTISKAKGQPREPQVYTLPPSREEMTKNQVSLSCAVKGFYPSDIAVEWESNGQPENNYKTTPPVLDSDGSFFLVSKLTVDKSRWQQGNVFSCSVMHEALHNRFTQKSLSLSPGK
light: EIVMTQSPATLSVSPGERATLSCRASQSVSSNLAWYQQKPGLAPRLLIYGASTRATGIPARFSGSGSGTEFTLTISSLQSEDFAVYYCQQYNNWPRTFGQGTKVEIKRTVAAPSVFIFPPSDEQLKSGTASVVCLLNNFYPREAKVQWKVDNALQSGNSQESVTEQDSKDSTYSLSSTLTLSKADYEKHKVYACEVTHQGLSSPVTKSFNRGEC
notes: HC2 carries the NPP3B56 Fab and the hole T366S, L368A, Y407V; Fc with L234A, L235A, D265S; The CPPC linker cysteines form disulfides with engineered Cys at L42 and H105 (Chothia); also called NPP3B56×CD3B2030-N106A; ENPP3×CD3 (NPP3B815)
- Tumor cell killing (Incucyte) EC50; A704; E:T 3:1 (human ENPP3 on cells [7]): 0.03 nM
- Tumor cell killing (Incucyte) EC50; HepG2; E:T 3:1 (human ENPP3 on cells [7]): 0.53 nM
- Tumor cell killing (Incucyte) EC50; TUHR4TKB; E:T 3:1 (human ENPP3 on cells [7]): 0.05 nM
- Tumor cell killing (Incucyte) EC50; TUHR10TKB; E:T 3:1 (human ENPP3 on cells [7]): 0.02 nM
- Tumor cell killing (Incucyte) EC50; VMRCRCW; E:T 3:1 (human ENPP3 on cells [7]): 0.13 nM

Reference: US20250163182A1 (Janssen / Centocor, published 2025)
